Measurements taken from US20150071855A1 (LONDON HEALTH SCIENCES CENTRE RESEARCHING, published 2015).

Target: T1, recombinant GST-EGFL7 protein (UniProt Q9UHF1 24-273)
T1 construct: Expressed in Sf21 insect cells by baculovirus and purified on glutathione-agarose; The sense primer encodes MRGSQEV, which fits human EGFL7; also called purified EGFL7 protein; recombinant EGFL7; not shown: glutathione-S-transferase (GST) tag from the pDEST20 plasmid (Invitrogen); TEV site/linker region carried over from pENTR/TEV/D-TOPO
T1 sequence (looked up): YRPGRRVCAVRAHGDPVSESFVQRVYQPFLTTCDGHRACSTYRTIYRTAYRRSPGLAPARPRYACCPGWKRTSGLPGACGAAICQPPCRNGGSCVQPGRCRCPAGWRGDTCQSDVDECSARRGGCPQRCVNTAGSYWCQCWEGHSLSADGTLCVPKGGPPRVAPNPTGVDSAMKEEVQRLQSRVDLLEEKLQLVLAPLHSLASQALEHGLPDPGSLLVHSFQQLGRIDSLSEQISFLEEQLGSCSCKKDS
Experiment: SPR imaging (GWC); peptide immobilised on gold spots, purified EGFL7 protein in solution; fit with 'association then dissociation' in GraphPad Prism
Method: Peptides were immobilized onto gold spots using standard protocols from the GWC manual. Peptides were then exposed to 500 μL of purified EGFL7 protein. The % change in reflectivity (% R) for each of the spots containing the peptides was collected using V++ Precision Digital Imaging Systems, version 5.0 software and the dissociation constants (KD) were calculated using the ‘association then dissociation’ equation in GraphPad Prism, version 5.0.

- Kd: 14.7 nM
B1: GSLLVHSFQQLG (peptide)
peptide: GSLLVHSFQQLG
notes: Immobilised on gold spots for the SPR imaging study; also called LCE71; LCE77
